# Reference: the RNAGym collection of RNA variant scans (doi:10.7554/elife.80360)
# B1: HDV Ribozyme (parent)
# chain: GGCCGGCAUGGUCCCAGCCUCCUCGCUGGCGCCGGCUGGGCAACAUUCCGAGGGGACCGUCCCCUCGGUAAUGGCGAAUGGGACCCA
# Variants of: B1
# Experiment: self-cleavage, relative activity (ratio to wild type); higher = more cleavage; co-transcriptional
row,Variant,self-cleavage
1,U47C A77U,0.285
2,U46C G67U,0.831
3,U46C G67C,0.469
4,U47C U72C,0.712
5,U47G G81A,0.237
6,U47G G81U,0.214
7,U47C C62G,0.415
8,U47C C62A,1.06
9,U47C C62U,1.16
10,U46C C58A,0.554
11,U47A C57A,1.02
12,U46G A77U,0.0831
13,U46G A77G,0.415
14,U47G A56C,1.09
15,U47G A56G,1.08
16,U47G A56U,1.11
17,U47C G67C,0.59
18,U47C G67U,0.892
19,U47C G81U,0.443
20,U47C G81A,0.332
21,U46G A87G,0.724
22,U47A G80C,0.138
23,U47A G80U,0.172
24,U46C C49U,0.73

row,Variant,self-cleavage
1,U46C C49G,0.554
2,U47C C64U,0.692
3,U47G G80U,0.163
4,U47G G80C,0.192
5,U47G G80A,0.242
6,U47C C58A,0.779
7,U47C C58U,0.752
8,U47C C58G,0.807
9,U46G C57U,0.86
10,U46G C57A,0.635
11,U46G C84U,0.287
12,U46G C84G,0.185
13,C48A G50U,1.17
14,C48A G50C,1.11
15,C48A G50A,0.969
16,C48A C64A,0.867
17,C48A C64G,0.786
18,U47A G50A,0.876
19,U46G U72C,0.287
20,U47A G82C,0.489
21,C48A C58G,1.12
22,C48A C58A,0.831
23,U47G A87G,1.16
24,U47G A87C,1.05

row,Variant,self-cleavage
1,U46G A78C,0.277
2,U47G C58A,1.48
3,U47A C85U,1.03
4,U46C G54U,0.786
5,U46C G54C,1.04
6,U47C U69G,1.02
7,U47C U69A,0.762
8,U47G C49A,1.09
9,U47C U60G,0.935
10,U46C C75G,0.469
11,U47C C61G,0.65
12,U47C C61A,0.872
13,U46G A51G,0.739
14,U46G A51C,0.755
15,U46C U60A,0.674
16,U46C U60G,0.755
17,U47A A56U,0.856
18,U47A A56C,0.782
19,U46C A87C,0.91
20,U46C A87U,0.689
21,U46C C84G,0.237
22,U46C C84A,0.723
23,C48A G55U,0.933
24,C48A G55C,1.06

row,Variant,self-cleavage
1,U47C A51C,0.776
2,U47C A51U,0.831
3,U47A C48G,0.598
4,U47G U79G,0.415
5,U47G U79A,0.95
6,U47A G55A,0.927
7,U47A G55U,1.01
8,U47A G74U,0.447
9,U47A G74A,0.688
10,C48A A87G,0.955
11,U47A G59A,0.746
12,U47C C49G,0.978
13,U47C C49U,0.864
14,U46C G76A,1.01
15,U46G A70C,0.665
16,U46G A70U,0.997
17,U46G A70G,0.511
18,U46C C64U,0.725
19,U46C C64G,0.875
20,U46G G76A,0.911
21,U46G G76C,0.95
22,U47C C63G,0.178
23,U47G C86U,1.11
24,U47G G59C,1.16

row,Variant,self-cleavage
1,U47G A70G,1.01
2,C48A C61G,1.03
3,C48A C61U,0.911
4,U47G U60C,0.767
5,U47G U60G,1.21
6,U47C A78G,0.807
7,U47C A78C,0.0898
8,U47C,0.906
9,U47A,0.958
10,U47G,1.09
11,U47A G54U,0.91
12,U46G G53C,0.465
13,U47G A83U,0.525
14,U47G A83G,0.8
15,U47A A83C,0.391
16,U47A A83U,0.287
17,U47A G76C,0.812
18,U47C C75G,0
19,U47C C75U,0.0791
20,U47G C63A,1.06
21,U46G G74A,0.365
22,U46C U79C,0.432
23,U46C U79G,0.554
24,C48A G52A,0.926

row,Variant,self-cleavage
1,U47G G82A,0.59
2,U47G G82U,0.123
3,U47G C61A,1.2
4,U46C G59A,0.776
5,U46C G59U,0.962
6,C48A C84G,0.727
7,U47G C64A,0.875
8,U46G C64G,0.525
9,U46G C64A,0.0831
10,U46G C64U,0.776
11,U47G G74C,0.222
12,U47G G74A,0.435
13,U46G G82U,0.229
14,U46G G82C,0.158
15,U47A C62A,1.01
16,U46C U72A,0.504
17,U46C U72C,0.684
18,U46C U72G,0.475
19,U47C A87G,0.876
20,U47C A87U,0.746
21,U47C A87C,0.95
22,U46C G73C,0.525
23,U47A C64A,1.08
24,U47A C64G,0.978

row,Variant,self-cleavage
1,U46C A78U,0.302
2,U47C G73C,0.374
3,U47C G73A,0.464
4,U47C G73U,0.225
5,C48A C49G,1.01
6,U46G G81C,0.175
7,U46G G81A,0.222
8,U46C C86A,0.849
9,C48A G73U,0.422
10,C48A G73C,0.618
11,U46C C66U,0.886
12,U47C A70G,1.08
13,U47C A70U,0.864
14,U47C A56U,0.942
15,U47C A56C,0.831
16,C48A C62G,0.359
17,U47C G82A,0.401
18,U47C G82C,0.185
19,U47C G82U,0.111
20,U47C G59A,0.954
21,U47C G55C,0.862
22,U47C G55A,0.923
23,U46C G74U,0.554
24,U46C G74A,0.48

row,Variant,self-cleavage
1,U47C C57U,0.712
2,U46G C75U,0.107
3,C48A G59U,1.11
4,C48A G59C,1.15
5,U47G G76C,0.727
6,U47G G76A,1.25
7,U46G U47C,0.623
8,U46G U47A,0.8
9,U46G A56C,0.959
10,U46G C58G,0.89
11,U46C U69C,1.12
12,U46G A71G,0.772
13,U46G A71C,0.982
14,U46C G52U,1.05
15,U46C G80U,0.0903
16,U46C G80C,0.399
17,U47G G68U,1.01
18,U47G G68A,0.831
19,U47G G68C,0.499
20,C48A A56G,1.2
21,U47C A71C,0.883
22,U46C A77G,0.516
23,U46C A77U,0.104
24,U46C A77C,0.375

row,Variant,self-cleavage
1,C48A C66G,0.831
2,U46C G82A,0.224
3,U46C G82C,0.243
4,U46C G55C,0.554
5,U46C G55A,0.878
6,U47C G54C,0.554
7,U47C G54A,1.04
8,U47A G52A,0.975
9,U47A G52U,0.845
10,U47A U79G,0.895
11,U46G G73U,0.514
12,U47G G67A,0.831
13,U47G G67C,0.554
14,U47G G67U,0.929
15,U46G,0.793
16,U46G G55C,0.98
17,U46G G55A,0.649
18,U47C U65G,0.856
19,U47C U65C,0.733
20,U46C C57U,0.705
21,C48A C63A,0.816
22,U47C G80A,0.215
23,U47C G80C,0.138
24,U46G U79A,0.356

row,Variant,self-cleavage
1,U47G G50A,0.957
2,U47G G50C,0.831
3,C48A C86A,0.831
4,C48A C86U,0.923
5,U46C A71G,1.2
6,U46C A71U,0.767
7,U47A C49G,1.42
8,U47G U69C,0.727
9,U47G C66U,1.23
10,U47G C66G,0.831
11,U46G C62U,0.811
12,U47C C66U,0.725
13,C48A C75U,0.339
14,C48A C75G,0.142
15,C48A C75A,0.326
16,U46C G53A,0.796
17,U46C G53C,0.739
18,C48A G80C,0.169
19,C48A C57U,0.76
20,C48A C57A,0.978
21,U46G G67C,0.208
22,U47A C58A,0.957
23,U47A C58U,1.03
24,U47A C58G,0.855

row,Variant,self-cleavage
1,U47G A71C,0.959
2,C48A G76A,0.727
3,C48A G76C,1.05
4,U47G A77U,0.665
5,U47A U69C,0.764
6,U47G G54A,1.18
7,U47G G54U,1.07
8,U47C C86A,0.806
9,U46G C63G,0.293
10,U46G C63A,0.415
11,U47A G73U,0.142
12,U47A G73A,0.447
13,U47A G73C,0.665
14,U47A C84A,0.808
15,U47A A78C,0.147
16,U46G G59U,0.902
17,C48A G53U,0.915
18,C48A G53A,1.05
19,U46G U69G,0.776
20,U46G U69A,0.665
21,U47G G53C,1.19
22,U47G G53A,1.15
23,U47G C84U,0.346
24,U46C G68A,0.415

row,Variant,self-cleavage
1,U46G A83U,0
2,U46G A83C,0.293
3,U46G C61G,0.649
4,U46G C61U,0.332
5,U47A C66G,0.982
6,U47A C66A,0.847
7,U46C U65G,1.09
8,C48A C85G,0.867
9,C48A C85A,0.717
10,C48A C85U,1.16
11,C48A A83G,0.791
12,C48A A83C,0.317
13,U46C A83U,0.554
14,U47G U72C,0.554
15,U47G U72A,0.831
16,U46G C48A,0.903
17,U46G G52C,0.429
18,U46C G81C,0.302
19,U46G C86U,0.277
20,U46G C86A,0.684
21,U47A C61G,0.639
22,U46G U60G,0.415
23,U46G U60A,0.453
24,U46G C66U,0.673

row,Variant,self-cleavage
1,U47G A78C,0.185
2,U47G A78U,0.196
3,U46G G54A,0.656
4,U46G G54C,0.453
5,U46G G54U,0.443
6,U46G C85U,0.831
7,U46G C85A,0.831
8,U47G G55A,0.939
9,U47G G55C,1.07
10,U47G C75G,0.317
11,U46G G80C,0.185
12,U46G G80U,0.202
13,U47A G67U,1.14
14,U47A G67A,0.897
15,U46G U65G,0.712
16,U46G U65A,0.582
17,C48A A70G,1.11
18,C48A A70C,0.957
19,U47A A51C,1.13
20,U47A A51U,1.03
21,U47A A51G,0.902
22,C48A G67U,1.03
23,C48A G67A,1.04
24,U47C G52C,0.917

row,Variant,self-cleavage
1,U47C G52A,0.853
2,U47A A87U,1.03
3,U47A A87C,0.95
4,U47A A87G,0.96
5,C48A A71G,0.791
6,U46G G50A,0.525
7,U46G G50U,0.458
8,U47C G74A,0.233
9,U47G C48A,0.798
10,U47G C48U,1.02
11,U47A U60G,1.02
12,U47A A70C,0.957
13,U47A A70U,0.697
14,U47A A70G,0.831
15,C48A G74A,0.7
16,U47C C85A,0.587
17,U46C C61G,0.734
18,U46C C61U,0.796
19,U46C C62U,0.918
20,U46C C62A,0.623
21,U46G G68U,0.554
22,U46G G68C,0.396
